{
  "source": "paper PMC7145548",
  "binders": {"B1": {"name": "S1 (35 bp) (dsDNA)", "DNA 1": "GCGAGGTGTAAATTGTCTGACATGTTCTTATTGGG", "DNA 2": "CCCAATAAGAACATGTCAGACAATTTACACCTCGC"}, "B2": {"name": "S2 (dsDNA)", "DNA 1": "GCGCTCATGTCAACCTTCTTACACTTCCTCTCCCG", "DNA 2": "CGGGAGAGGAAGTGTAAGAAGGTTGACATGAGCGC"}, "B3": {"name": "S1 (25 bp) (dsDNA)", "DNA 1": "GTGTAAATTGTCTGACATGTTCTTA", "DNA 2": "TAAGAACATGTCAGACAATTTACAC"}, "B4": {"name": "S1 (28 bp) (dsDNA)", "DNA 1": "GCGAGGTGTAAATTGTCTGACATGTTCT", "DNA 2": "AGAACATGTCAGACAATTTACACCTCGC"}, "B5": {"name": "S3 (dsDNA)", "DNA 1": "GCACATGTAAGTCTATTGACATGTTCTTTCCCTCG", "DNA 2": "CGAGGGAAAGAACATGTCAATAGACTTACATGTGC"}, "B6": {"name": "GS1 (dsDNA)", "DNA 1": "TAATAGACAGGGAGATCGATGTCTGCTA", "DNA 2": "TAGCAGACATCGATCTCCCTGTCTATTA"}, "B7": {"name": "GS2 (first) (dsDNA)", "DNA 1": "ATCGGGACAATCGCGTCTCTGTCGATCG", "DNA 2": "CGATCGACAGAGACGCGATTGTCCCGAT"}, "B8": {"name": "GS2 (second) (dsDNA)", "DNA 1": "TTGAATTTGTGGGGGCAGGGACAGCCCTGA", "DNA 2": "TCAGGGCTGTCCCTGCCCCCACAAATTCAA"}, "B9": {"name": "GS5 (dsDNA)", "DNA 1": "AGCGAGGACACTGCTGGCGGTGTCGCCGTC", "DNA 2": "GACGGCGACACCGCCAGCAGTGTCCTCGCT"}, "B10": {"name": "S4 (35 bp) (dsDNA)", "DNA 1": "GCCCGAAGTGTAAACGCGTTGACATGTGGTGCTGG", "DNA 2": "CCAGCACCACATGTCAACGCGTTTACACTTCGGGC"}, "B11": {"name": "S4 (28 bp) (dsDNA)", "DNA 1": "CCGAAGTGTAAACGCGTTGACATGTGGT", "DNA 2": "ACCACATGTCAACGCGTTTACACTTCGG"}, "B12": {"name": "S5 (28 bp) (dsDNA)", "DNA 1": "GCGAAGTGTCATCCCTCTTACATGACTT", "DNA 2": "AAGTCATGTAAGAGGGATGACACTTCGC"}, "B13": {"name": "SG (28 bp) (dsDNA)", "DNA 1": "GCGACGTGTATTTCCCCTGACACTAGCG", "DNA 2": "CGCTAGTGTCAGGGGAAATACACGTCGC"}, "B14": {"name": "S5 (35 bp) (dsDNA)", "DNA 1": "GCGAAGTGTCATCCCTCTTACATGACTTGTCTTGG", "DNA 2": "CCAAGACAAGTCATGTAAGAGGGATGACACTTCGC"}},
  "key": {"hsRosR [1]": {"target": "T1, hsRosR (Halobacterium salinarum (Halobacterium …, UniProt Q9HSF4 1-116))", "T1 sequence": "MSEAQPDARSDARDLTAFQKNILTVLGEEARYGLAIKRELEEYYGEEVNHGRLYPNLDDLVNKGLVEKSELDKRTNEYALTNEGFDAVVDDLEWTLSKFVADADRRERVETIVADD", "test": "fluorescence anisotropy"}, "hsRosR [2]": {"target": "T1, hsRosR", "test": "fluorescence anisotropy", "remark": "listed apart in the source"}, "hsRosR [3]": {"target": "T1, hsRosR", "test": "fluorescence anisotropy", "remark": "listed apart in the source"}, "hsRosR [4]": {"target": "T1, hsRosR", "test": "ITC"}, "hsRosR [5]": {"target": "T1, hsRosR", "test": "ITC", "remark": "listed apart in the source"}, "hsRosR [6]": {"target": "T1, hsRosR", "test": "fluorescence anisotropy", "remark": "listed apart in the source"}, "hsRosR [7]": {"target": "T1, hsRosR", "test": "fluorescence anisotropy", "remark": "listed apart in the source"}, "hsRosR [8]": {"target": "T1, hsRosR", "test": "fluorescence anisotropy", "remark": "listed apart in the source"}, "hsRosR [9]": {"target": "T1, hsRosR", "test": "fluorescence anisotropy", "remark": "listed apart in the source"}, "hsRosR [10]": {"target": "T1, hsRosR", "test": "X-ray crystallography"}, "hsRosR [11]": {"target": "T1, hsRosR", "test": "X-ray crystallography", "remark": "listed apart in the source"}, "hsRosR [12]": {"target": "T1, hsRosR", "test": "X-ray crystallography", "remark": "listed apart in the source"}},
  "data": [
    {"binder": "B1", "values": [
      {"measurement": "Kd", "setting": "hsRosR [1]", "value": "49.3 ± 6.18", "unit": "nM"}
    ]},
    {"binder": "B2", "values": [
      {"measurement": "Kd", "setting": "hsRosR [2]", "value": "60.1 ± 18.8", "unit": "nM"}
    ]},
    {"binder": "B3", "values": [
      {"measurement": "Kd", "setting": "hsRosR [3]", "value": "24 ± 3.37", "unit": "nM"},
      {"measurement": "Kd", "setting": "hsRosR [4]", "value": "91 ± 3.25", "unit": "nM"},
      {"measurement": "Kd", "setting": "hsRosR [5]", "value": "259 ± 9.75", "unit": "nM"},
      {"measurement": "Kd", "setting": "hsRosR [1]", "value": "37.2 ± 2.36", "unit": "nM"},
      {"measurement": "Kd", "setting": "hsRosR [6]", "value": "169 ± 30.2", "unit": "nM"},
      {"measurement": "Kd", "setting": "hsRosR [7]", "value": "80.2 ± 10.2", "unit": "nM"},
      {"measurement": "Kd", "setting": "hsRosR [8]", "value": "25.9 ± 2.02", "unit": "nM"},
      {"measurement": "Kd", "setting": "hsRosR [9]", "value": "78.3 ± 8.34", "unit": "nM"}
    ]},
    {"binder": "B4", "values": [
      {"measurement": "Kd", "setting": "hsRosR [1]", "value": "53.5 ± 6.54", "unit": "nM"}
    ]},
    {"binder": "B5", "values": [
      {"measurement": "Kd", "setting": "hsRosR [2]", "value": "68 ± 11.3", "unit": "nM"}
    ]},
    {"binder": "B6", "values": [
      {"measurement": "binding result", "setting": "hsRosR [1]", "value": "no binding"}
    ]},
    {"binder": "B7", "values": [
      {"measurement": "binding result", "setting": "hsRosR [1]", "value": "no binding"}
    ]},
    {"binder": "B8", "values": [
      {"measurement": "binding result", "setting": "hsRosR [1]", "value": "no binding"}
    ]},
    {"binder": "B9", "values": [
      {"measurement": "binding result", "setting": "hsRosR [1]", "value": "no binding"}
    ]},
    {"binder": "B10", "values": [
      {"measurement": "Kd", "setting": "hsRosR [2]", "value": "91.6 ± 13.2", "unit": "nM"}
    ]},
    {"binder": "B11", "values": [
      {"measurement": "binding result", "setting": "hsRosR [10]", "value": "binds"}
    ]},
    {"binder": "B12", "values": [
      {"measurement": "binding result", "setting": "hsRosR [11]", "value": "binds"}
    ]},
    {"binder": "B13", "values": [
      {"measurement": "binding result", "setting": "hsRosR [12]", "value": "binds"}
    ]},
    {"binder": "B14", "values": [
      {"measurement": "Kd", "setting": "hsRosR [2]", "value": "99.5 ± 10.6", "unit": "nM"}
    ]}
  ]
}
